The values that follow come from publication PMC6946597.

The target of assay [1] is human COA6 isoform 3 (human). The experiment in a line: SEC. (In gel filtration, larger molecules generally elute earlier.)
For assay [2], the target named is human COA6 isoform 3 (human). Put plainly: SEC. The source holds these as a separate data set.

Where two headings read alike, the source gives them in different places.

human COA6 isoform 3 (natural protein): the stoichiometry N in assay [1] and in assay [2] was 2 in each case.

A word on the stoichiometry N: it is the number of molecules, sites or subunits per partner or assembly.
